Measurements published in IntAct's records for PubMed 24097060.

B1: DNA topoisomerase 4 subunit A (Escherichia coli (strain K12)), P0AFI2 (parent)
chain: MSDMAERLALHEFTENAYLNYSMYVIMDRALPFIGDGLKPVQRRIVYAMSELGLNASAKFKKSARTVGDVLGKYHPHGDSACYEAMVLMAQPFSYRYPLVDGQGNWGAPDDPKSFAAMRYTESRLSKYSELLLSELGQGTADWVPNFDGTLQEPKMLPARLPNILLNGTTGIAVGMATDIPPHNLREVAQAAIALIDQPKTTLDQLLDIVQGPDYPTEAEIITSRAEIRKIYENGRGSVRMRAVWKKEDGAVVISALPHQVSGARVLEQIAAQMRNKKLPMVDDLRDESDHENPTRLVIVPRSNRVDMDQVMNHLFATTDLEKSYRINLNMIGLDGRPAVKNLLEILSEWLVFRRDTVRRRLNYRLEKVLKRLHILEGLLVAFLNIDEVIEIIRNEDEPKPALMSRFGLTETQAEAILELKLRHLAKLEEMKIRGEQSELEKERDQLQGILASERKMNNLLKKELQADAQAYGDDRRSPLQEREEAKAMSEHDMLPSEPVTIVLSQMGWVRSAKGHDIDAPGLNYKAGDSFKAAVKGKSNQPVVFVDSTGRSYAIDPITLPSARGQGEPLTGKLTLPPGATVDHMLMESDDQKLLMASDAGYGFVCTFNDLVARNRAGKALITLPENAHVMPPVVIEDASDMLLAITQAGRMLMFPVSDLPQLSKGKGNKIINIPSAEAARGEDGLAQLYVLPPQSTLTIHVGKRKIKLRPEELQKVTGERGRRGTLMRGLQRIDRVEIDSPRRASSGDSEE
partner: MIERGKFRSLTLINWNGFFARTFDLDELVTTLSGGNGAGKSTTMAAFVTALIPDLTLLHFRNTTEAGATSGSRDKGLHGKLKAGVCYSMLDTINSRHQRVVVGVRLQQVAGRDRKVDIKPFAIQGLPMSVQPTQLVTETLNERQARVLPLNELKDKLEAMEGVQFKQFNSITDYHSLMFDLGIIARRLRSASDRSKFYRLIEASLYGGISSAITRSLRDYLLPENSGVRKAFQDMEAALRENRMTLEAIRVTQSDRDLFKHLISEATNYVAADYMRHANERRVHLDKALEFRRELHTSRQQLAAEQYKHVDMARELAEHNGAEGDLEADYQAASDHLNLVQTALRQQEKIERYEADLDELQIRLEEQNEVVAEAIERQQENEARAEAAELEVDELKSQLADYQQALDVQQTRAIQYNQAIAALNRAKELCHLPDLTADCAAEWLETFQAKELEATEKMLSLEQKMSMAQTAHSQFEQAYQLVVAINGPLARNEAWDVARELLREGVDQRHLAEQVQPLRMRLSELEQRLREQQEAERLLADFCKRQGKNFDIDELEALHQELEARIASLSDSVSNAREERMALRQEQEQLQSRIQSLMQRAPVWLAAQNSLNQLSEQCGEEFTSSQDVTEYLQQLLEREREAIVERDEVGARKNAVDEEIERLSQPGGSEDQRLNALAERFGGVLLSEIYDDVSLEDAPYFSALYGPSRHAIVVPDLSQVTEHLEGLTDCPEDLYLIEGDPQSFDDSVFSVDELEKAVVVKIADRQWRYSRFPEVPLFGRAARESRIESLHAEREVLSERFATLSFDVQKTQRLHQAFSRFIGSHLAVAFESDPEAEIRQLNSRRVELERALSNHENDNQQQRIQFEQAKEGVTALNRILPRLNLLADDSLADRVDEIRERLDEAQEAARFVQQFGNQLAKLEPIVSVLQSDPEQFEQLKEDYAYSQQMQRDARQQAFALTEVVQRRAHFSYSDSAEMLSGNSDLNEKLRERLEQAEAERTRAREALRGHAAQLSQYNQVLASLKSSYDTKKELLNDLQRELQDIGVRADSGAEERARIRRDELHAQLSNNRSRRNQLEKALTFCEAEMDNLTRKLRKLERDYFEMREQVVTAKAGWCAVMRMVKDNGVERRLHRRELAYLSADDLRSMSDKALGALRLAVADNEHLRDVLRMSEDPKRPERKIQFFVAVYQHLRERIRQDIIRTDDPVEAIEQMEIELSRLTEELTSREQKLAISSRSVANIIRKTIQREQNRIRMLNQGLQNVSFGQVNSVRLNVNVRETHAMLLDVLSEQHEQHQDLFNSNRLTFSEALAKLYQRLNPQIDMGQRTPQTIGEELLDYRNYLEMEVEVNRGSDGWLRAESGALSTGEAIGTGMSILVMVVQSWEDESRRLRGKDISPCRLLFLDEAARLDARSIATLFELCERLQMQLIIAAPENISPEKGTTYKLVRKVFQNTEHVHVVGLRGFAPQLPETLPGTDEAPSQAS
B2: Chromosome partition protein MukB (Escherichia coli (strain K12)), P22523 (parent)
chain: B1 partner
partner: B1 chain

Variants of: B1
Conditions: with mukb_ecoli mukB

Row | effect of a mutation on the interaction | Variant
1 | disrupting interaction | R705D;R729D

Variants of: B2
Conditions: with parc_ecoli parC

Row | effect of a mutation on the interaction | Variant
2 | disrupting interaction | D692F;D746R;E753R

Variants of: B2
Conditions: with parc_ecoli parC
Remark: another data set of the same source

Row | effect of a mutation on the interaction | Variant
3 | decreasing interaction | D692F
